In ChEMBL document CHEMBL4052696, “Varic acid analogues from fungus as PTP1B inhibitors: Biological evaluation and structure-activity relationships” (Bioorg Med Chem Lett, 2017):

Tests used:
Details in all cases: Homo sapiens
[1] = compound: CCCc1cc(OC(=O)c2c(O)cc(OC(=O)c3c(O)cc(O)cc3CCC)cc2CCC)cc(O)c1C(=O)O; assay: Competitive inhibition of PTP1B (unknown origin) assessed as Km(app) for substrate at 0.1 uM using p-nitrophenyl phosphate substrate incubated for 30 mins by Lineweaver-Burk double reciprocal plot (reference value: 1.43 mM)
[2] = compound: CCCc1cc(OC(=O)c2c(O)cc(OC(=O)c3c(O)cc(O)cc3CCC)cc2CCC)cc(O)c1C(=O)O; assay: Competitive inhibition of PTP1B (unknown origin) assessed as Km(app) for substrate at 0.25 uM using p-nitrophenyl phosphate substrate incubated for 30 mins by Lineweaver-Burk double reciprocal plot (reference value: 1.43 mM)
[3] = compound: CCCc1cc(OC(=O)c2c(O)cc(OC(=O)c3c(O)cc(O)cc3CCC)cc2CCC)cc(O)c1C(=O)O; assay: Competitive inhibition of PTP1B (unknown origin) assessed as Km(app) for substrate at 0.4 uM using p-nitrophenyl phosphate substrate incubated for 30 mins by Lineweaver-Burk double reciprocal plot (reference value: 1.43 mM)

B1: Tyrosine-protein phosphatase non-receptor type 1 (Homo sapiens), P18031 (protein)
chain: MEMEKEFEQIDKSGSWAAIYQDIRHEASDFPCRVAKLPKNKNRNRYRDVSPFDHSRIKLHQEDNDYINASLIKMEEAQRSYILTQGPLPNTCGHFWEMVWEQKSRGVVMLNRVMEKGSLKCAQYWPQKEEKEMIFEDTNLKLTLISEDIKSYYTVRQLELENLTTQETREILHFHYTTWPDFGVPESPASFLNFLFKVRESGSLSPEHGPVVVHCSAGIGRSGTFCLADTCLLLMDKRKDPSSVDIKKVLLEMRKFRMGLIQTADQLRFSYLAVIEGAKFIMGDSSVQDQWKELSHEDLEPPPEHIPPPPRPPKRILEPHNGKCREFFPNHQWVKEETQEDKDCPIKEEKGSPLNAAPYGIESMSQDTEVRSRVVGGSLRGAQAASPAKGEPSLPEKDEDHALSYWKPFLVNMCVATVLTAGAYLCYRFLFNSNT
- Km [1]: 12 mM
- Km [2]: 44 mM
- Km [3]: 91 mM
